T1: human neuropeptide Y2 receptor (human, UniProt P49146 1-381)
T1 construct: whole, on cells; also called hNPY2 receptor; hNPY2-R
T1 sequence (looked up): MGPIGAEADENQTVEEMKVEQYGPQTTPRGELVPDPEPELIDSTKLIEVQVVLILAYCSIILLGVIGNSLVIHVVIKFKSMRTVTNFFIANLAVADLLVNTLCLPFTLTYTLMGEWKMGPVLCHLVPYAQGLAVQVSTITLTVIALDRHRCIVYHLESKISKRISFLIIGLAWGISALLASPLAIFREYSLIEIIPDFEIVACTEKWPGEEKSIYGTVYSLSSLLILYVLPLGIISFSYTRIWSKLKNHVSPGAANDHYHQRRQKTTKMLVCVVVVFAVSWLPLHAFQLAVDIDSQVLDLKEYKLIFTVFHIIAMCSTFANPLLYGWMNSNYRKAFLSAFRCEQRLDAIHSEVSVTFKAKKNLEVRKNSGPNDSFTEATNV

B1: Compound 110 (peptide)
peptide: Isovaleryl-APEK([AEEA-AEEA-γGlu-C18 diacid])PEEDAEPEEIQRYYVSLRHYYNWLTRQRY-NH2
SMILES: CC[C@H](C)[C@H](NC(=O)[C@H](CCC(=O)O)NC(=O)[C@H](CCC(=O)O)NC(=O)[C@@H]1CCCN1C(=O)[C@H](CCC(=O)O)NC(=O)[C@H](C)NC(=O)[C@H](CC(=O)O)NC(=O)[C@H](CCC(=O)O)NC(=O)[C@H](CCC(=O)O)NC(=O)[C@@H]1CCCN1C(=O)[C@H](CCCCNC(=O)COCCOCCNC(=O)COCCOCCNC(=O)CC[C@H](NC(=O)CCCCCCCCCCCCCCCCC(=O)O)C(=O)O)NC(=O)[C@H](CCC(=O)O)NC(=O)[C@@H]1CCCN1C(=O)[C@H](C)NC(=O)CC(C)C)C(=O)N[C@@H](CCC(N)=O)C(=O)N[C@@H](CCCNC(=N)N)C(=O)N[C@@H](Cc1ccc(O)cc1)C(=O)N[C@@H](Cc1ccc(O)cc1)C(=O)N[C@H](C(=O)N[C@@H](CO)C(=O)N[C@@H](CC(C)C)C(=O)N[C@@H](CCCNC(=N)N)C(=O)N[C@@H](Cc1c[nH]cn1)C(=O)N[C@@H](Cc1ccc(O)cc1)C(=O)N[C@@H](Cc1ccc(O)cc1)C(=O)N[C@@H](CC(N)=O)C(=O)N[C@@H](Cc1c[nH]c2ccccc12)C(=O)N[C@@H](CC(C)C)C(=O)N[C@H](C(=O)N[C@@H](CCCNC(=N)N)C(=O)N[C@@H](CCC(N)=O)C(=O)N[C@@H](CCCNC(=N)N)C(=O)N[C@@H](Cc1ccc(O)cc1)C(N)=O)[C@@H](C)O)C(C)C
B2: Compound 121 (peptide)
peptide: Isovaleryl-APAK([AEEA-AEEA-γGlu-C18 diacid])PEADASPEELQRYYVSLRHYYNWLTRQRY-NH2
SMILES: CC(C)CC(=O)N[C@@H](C)C(=O)N1CCC[C@H]1C(=O)N[C@@H](C)C(=O)N[C@@H](CCCCNC(=O)COCCOCCNC(=O)COCCOCCNC(=O)CC[C@H](NC(=O)CCCCCCCCCCCCCCCCC(=O)O)C(=O)O)C(=O)N1CCC[C@H]1C(=O)N[C@@H](CCC(=O)O)C(=O)N[C@@H](C)C(=O)N[C@@H](CC(=O)O)C(=O)N[C@@H](C)C(=O)N[C@@H](CO)C(=O)N1CCC[C@H]1C(=O)N[C@@H](CCC(=O)O)C(=O)N[C@@H](CCC(=O)O)C(=O)N[C@@H](CC(C)C)C(=O)N[C@@H](CCC(N)=O)C(=O)N[C@@H](CCCNC(=N)N)C(=O)N[C@@H](Cc1ccc(O)cc1)C(=O)N[C@@H](Cc1ccc(O)cc1)C(=O)N[C@H](C(=O)N[C@@H](CO)C(=O)N[C@@H](CC(C)C)C(=O)N[C@@H](CCCNC(=N)N)C(=O)N[C@@H](Cc1c[nH]cn1)C(=O)N[C@@H](Cc1ccc(O)cc1)C(=O)N[C@@H](Cc1ccc(O)cc1)C(=O)N[C@@H](CC(N)=O)C(=O)N[C@@H](Cc1c[nH]c2ccccc12)C(=O)N[C@@H](CC(C)C)C(=O)N[C@H](C(=O)N[C@@H](CCCNC(=N)N)C(=O)N[C@@H](CCC(N)=O)C(=O)N[C@@H](CCCNC(=N)N)C(=O)N[C@@H](Cc1ccc(O)cc1)C(N)=O)[C@@H](C)O)C(C)C
B3: Compound 119 (peptide)
peptide: Isovaleryl-APEK([AEEA-AEEA-γGlu-C18 diacid])PEEEASPEELQRYYVTLRHYYNWLTRQRY-NH2
SMILES: CC(C)CC(=O)N[C@@H](C)C(=O)N1CCC[C@H]1C(=O)N[C@@H](CCC(=O)O)C(=O)N[C@@H](CCCCNC(=O)COCCOCCNC(=O)COCCOCCNC(=O)CC[C@H](NC(=O)CCCCCCCCCCCCCCCCC(=O)O)C(=O)O)C(=O)N1CCC[C@H]1C(=O)N[C@@H](CCC(=O)O)C(=O)N[C@@H](CCC(=O)O)C(=O)N[C@@H](CCC(=O)O)C(=O)N[C@@H](C)C(=O)N[C@@H](CO)C(=O)N1CCC[C@H]1C(=O)N[C@@H](CCC(=O)O)C(=O)N[C@@H](CCC(=O)O)C(=O)N[C@@H](CC(C)C)C(=O)N[C@@H](CCC(N)=O)C(=O)N[C@@H](CCCNC(=N)N)C(=O)N[C@@H](Cc1ccc(O)cc1)C(=O)N[C@@H](Cc1ccc(O)cc1)C(=O)N[C@H](C(=O)N[C@H](C(=O)N[C@@H](CC(C)C)C(=O)N[C@@H](CCCNC(=N)N)C(=O)N[C@@H](Cc1c[nH]cn1)C(=O)N[C@@H](Cc1ccc(O)cc1)C(=O)N[C@@H](Cc1ccc(O)cc1)C(=O)N[C@@H](CC(N)=O)C(=O)N[C@@H](Cc1c[nH]c2ccccc12)C(=O)N[C@@H](CC(C)C)C(=O)N[C@H](C(=O)N[C@@H](CCCNC(=N)N)C(=O)N[C@@H](CCC(N)=O)C(=O)N[C@@H](CCCNC(=N)N)C(=O)N[C@@H](Cc1ccc(O)cc1)C(N)=O)[C@@H](C)O)[C@@H](C)O)C(C)C
B4: Compound 111 (peptide)
peptide: Isovaleryl-APEK([AEEA-AEEA-γGlu-C18 diacid])PEEDAEPEELQRYYVELRHYYNWLTRQRY-NH2
SMILES: CC(C)CC(=O)N[C@@H](C)C(=O)N1CCC[C@H]1C(=O)N[C@@H](CCC(=O)O)C(=O)N[C@@H](CCCCNC(=O)COCCOCCNC(=O)COCCOCCNC(=O)CC[C@H](NC(=O)CCCCCCCCCCCCCCCCC(=O)O)C(=O)O)C(=O)N1CCC[C@H]1C(=O)N[C@@H](CCC(=O)O)C(=O)N[C@@H](CCC(=O)O)C(=O)N[C@@H](CC(=O)O)C(=O)N[C@@H](C)C(=O)N[C@@H](CCC(=O)O)C(=O)N1CCC[C@H]1C(=O)N[C@@H](CCC(=O)O)C(=O)N[C@@H](CCC(=O)O)C(=O)N[C@@H](CC(C)C)C(=O)N[C@@H](CCC(N)=O)C(=O)N[C@@H](CCCNC(=N)N)C(=O)N[C@@H](Cc1ccc(O)cc1)C(=O)N[C@@H](Cc1ccc(O)cc1)C(=O)N[C@H](C(=O)N[C@@H](CCC(=O)O)C(=O)N[C@@H](CC(C)C)C(=O)N[C@@H](CCCNC(=N)N)C(=O)N[C@@H](Cc1c[nH]cn1)C(=O)N[C@@H](Cc1ccc(O)cc1)C(=O)N[C@@H](Cc1ccc(O)cc1)C(=O)N[C@@H](CC(N)=O)C(=O)N[C@@H](Cc1c[nH]c2ccccc12)C(=O)N[C@@H](CC(C)C)C(=O)N[C@H](C(=O)N[C@@H](CCCNC(=N)N)C(=O)N[C@@H](CCC(N)=O)C(=O)N[C@@H](CCCNC(=N)N)C(=O)N[C@@H](Cc1ccc(O)cc1)C(N)=O)[C@@H](C)O)C(C)C
B5: Compound 122 (peptide)
peptide: Isovaleryl-APEK([AEEA-AEEA-γGlu-C18 diacid])PEEDAAPEELQRYYVSLRHYYNWLTRQRY-NH2
SMILES: CC(C)CC(=O)N[C@@H](C)C(=O)N1CCC[C@H]1C(=O)N[C@@H](CCC(=O)O)C(=O)N[C@@H](CCCCNC(=O)COCCOCCNC(=O)COCCOCCNC(=O)CC[C@H](NC(=O)CCCCCCCCCCCCCCCCC(=O)O)C(=O)O)C(=O)N1CCC[C@H]1C(=O)N[C@@H](CCC(=O)O)C(=O)N[C@@H](CCC(=O)O)C(=O)N[C@@H](CC(=O)O)C(=O)N[C@@H](C)C(=O)N[C@@H](C)C(=O)N1CCC[C@H]1C(=O)N[C@@H](CCC(=O)O)C(=O)N[C@@H](CCC(=O)O)C(=O)N[C@@H](CC(C)C)C(=O)N[C@@H](CCC(N)=O)C(=O)N[C@@H](CCCNC(=N)N)C(=O)N[C@@H](Cc1ccc(O)cc1)C(=O)N[C@@H](Cc1ccc(O)cc1)C(=O)N[C@H](C(=O)N[C@@H](CO)C(=O)N[C@@H](CC(C)C)C(=O)N[C@@H](CCCNC(=N)N)C(=O)N[C@@H](Cc1c[nH]cn1)C(=O)N[C@@H](Cc1ccc(O)cc1)C(=O)N[C@@H](Cc1ccc(O)cc1)C(=O)N[C@@H](CC(N)=O)C(=O)N[C@@H](Cc1c[nH]c2ccccc12)C(=O)N[C@@H](CC(C)C)C(=O)N[C@H](C(=O)N[C@@H](CCCNC(=N)N)C(=O)N[C@@H](CCC(N)=O)C(=O)N[C@@H](CCCNC(=N)N)C(=O)N[C@@H](Cc1ccc(O)cc1)C(N)=O)[C@@H](C)O)C(C)C
B6: Compound 115 (peptide)
peptide: Isovaleryl-APEK([AEEA-AEEA-γGlu-C18 diacid])PEEEASPEALQRYYVSLRHYYNWLTRQRY-NH2
SMILES: CC(C)CC(=O)N[C@@H](C)C(=O)N1CCC[C@H]1C(=O)N[C@@H](CCC(=O)O)C(=O)N[C@@H](CCCCNC(=O)COCCOCCNC(=O)COCCOCCNC(=O)CC[C@H](NC(=O)CCCCCCCCCCCCCCCCC(=O)O)C(=O)O)C(=O)N1CCC[C@H]1C(=O)N[C@@H](CCC(=O)O)C(=O)N[C@@H](CCC(=O)O)C(=O)N[C@@H](CCC(=O)O)C(=O)N[C@@H](C)C(=O)N[C@@H](CO)C(=O)N1CCC[C@H]1C(=O)N[C@@H](CCC(=O)O)C(=O)N[C@@H](C)C(=O)N[C@@H](CC(C)C)C(=O)N[C@@H](CCC(N)=O)C(=O)N[C@@H](CCCNC(=N)N)C(=O)N[C@@H](Cc1ccc(O)cc1)C(=O)N[C@@H](Cc1ccc(O)cc1)C(=O)N[C@H](C(=O)N[C@@H](CO)C(=O)N[C@@H](CC(C)C)C(=O)N[C@@H](CCCNC(=N)N)C(=O)N[C@@H](Cc1c[nH]cn1)C(=O)N[C@@H](Cc1ccc(O)cc1)C(=O)N[C@@H](Cc1ccc(O)cc1)C(=O)N[C@@H](CC(N)=O)C(=O)N[C@@H](Cc1c[nH]c2ccccc12)C(=O)N[C@@H](CC(C)C)C(=O)N[C@H](C(=O)N[C@@H](CCCNC(=N)N)C(=O)N[C@@H](CCC(N)=O)C(=O)N[C@@H](CCCNC(=N)N)C(=O)N[C@@H](Cc1ccc(O)cc1)C(N)=O)[C@@H](C)O)C(C)C

*1 amine or outer side, *2 acyl side, *3 side chain or, on linkers, in order; H or OH if unused. Side-chain parts run from the residue outwards. The star is where a group is joined. C18 diacid = O=C(O)CCCCCCCCCCCCCCCCC(=O)*; γGlu = O=C(O)[C@H](CCC(=O)[*:2])N[*:1]; Isovaleryl = CC(C)CC(=O)*; AEEA = NCCOCCOCC(=O)O

For the assay, the target named is T1, human neuropeptide Y2 receptor. Briefly: radioligand competition (125I-PYY(1-36)), hNPY2R membranes. A digest of the protocol: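 Commercial human Y2 receptor membranes (0.5 μg protein/well) were incubated with peptide for 2 h at room temperature in 50 mM HEPES, 5 mM MgCl₂, 1 mM CaCl₂, pH 7.4, with 0.2% ovalbumin. Bound radioligand was separated on PEI-soaked GF/C filters and counted by scintillation, and IC₅₀ came from nonlinear sigmoidal regression.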
For orientation: In a radioligand displacement assay an active substance lowers the binding of a labelled ligand.
For the molecule B1, the affinity corresponds to a Ki of 0.77 nM. As for B2, the Ki – broadly, a dissociation constant, usually derived from enzyme kinetics or from competition with a known ligand – is 0.61 nM. This Ki and that of the molecule before are within 1.5-fold of each other. Regarding B3, the Ki was 3.32 nM. In turn, B4 returned a Ki of 5.43 nM.

Regarding B5, the affinity corresponds to a Ki of 1.84 nM. This Ki lies about 3-fold lower than the previous one.

Turning to B6, the Ki was found to be 1.94 nM.

The record behind these values is patent US20210139548A1 (published 2021).
